What was measured:
purified protein [1] = substrate: CCc1c2c(nc3ccc(OC(=O)N4CCC(N)CC4)cc13)-c1cc3c(c(=O)n1C2)COC(=O)[C@]3(O)CC; experiment: purified protein; conditions: 5-200 uM substrate, 50 mM HEPES pH 7.4, 37 °C, 10 h
purified protein [2] = substrate: CCCCCC(=O)Oc1ccc([N+](=O)[O-])cc1; experiment: purified protein; type: biochemical, Altericroceibacterium indicum; conditions: Tris-HCl pH 7.5, 45 °C
purified protein [3] = substrate: CCCC(=O)Oc1ccc([N+](=O)[O-])cc1; experiment: purified protein; type: biochemical, Altericroceibacterium indicum; conditions: Tris-HCl pH 7.5, 45 °C
HPLC of SN38 formation [4] = substrate: CCc1c2c(nc3ccc(OC(=O)N4CCC(N)CC4)cc13)-c1cc3c(c(=O)n1C2)COC(=O)[C@]3(O)CC; experiment: HPLC of SN38 formation; type: biochemical, Altericroceibacterium indicum; conditions: 5-200 uM substrate, 50 mM HEPES pH 7.4, 37 °C, 10 h
From the text: (§1) HPLC of SN38 formation on E93 | the kinetic parameters for the conversion of CPT11 and NPC were obtained from the HPLC

HPLC of SN38 formation [5] = substrate: CCc1c2c(nc3ccc(OC(=O)N4CCC(N5CCCCC5)CC4)cc13)-c1cc3c(c(=O)n1C2)COC(=O)[C@]3(O)CC; experiment: HPLC of SN38 formation; type: biochemical, Altericroceibacterium indicum; conditions: pH 7.4; 37.0 °C
From the text: as §1

B1: E93 (Altericroceibacterium indicum; E428A) (protein)
chain: MARTRYGPVIGKVEQGALAFKGIPYGAPTSGSGRFMPPTPPQPWSTPLRAFDYGPTAPQSDPQDALESGAADARESEDCLTLNVWTPSLNDQRKRPVMVWLHGGGLWRLSAAGDYQAGTHLAAHSDVVMVSPNHRLNVLAHAYLDEYDPAFAGSSSAGMLDLVLALKWVRDNIEEFGGDPDNVTIFGQSGGGQKVSFLMAMPAAAGLFHKAIIQSGPAPLALEKPYARELSARLLTLLDIPKNRVRDIQNVPLDAIMRAYYQIFEELGGFGVMGVIQDFAPVVDDVALPQHPFWNGASPLSRDVPLMIGCTRTEMTEYFLASNPGAAKRDFAAVTAQLEPVFGMQAPAVVAHYRATHPTASPWEVDALIRSDWPTRLFTQRIADEQVKLGGAPVWMYRMDWQTTARDGLLMSPHAIDIPFVLDTVGTAPVEPGQLAEQQRMMQQMNNAWVSFARNGNPQNKYIPPWQPYNSTSRPTMIFNLHSHMANDPDGSDLAFLKKDLANLEVVAGGVTH
Km (purified protein [1]): 85.07 ± 9.4 µM
kcat (purified protein [1]): 23.80 ± 2.34 ×10^-3 min^-1

B2: E93 (Altericroceibacterium indicum; Q193A) (protein)
chain: MARTRYGPVIGKVEQGALAFKGIPYGAPTSGSGRFMPPTPPQPWSTPLRAFDYGPTAPQSDPQDALESGAADARESEDCLTLNVWTPSLNDQRKRPVMVWLHGGGLWRLSAAGDYQAGTHLAAHSDVVMVSPNHRLNVLAHAYLDEYDPAFAGSSSAGMLDLVLALKWVRDNIEEFGGDPDNVTIFGQSGGGAKVSFLMAMPAAAGLFHKAIIQSGPAPLALEKPYARELSARLLTLLDIPKNRVRDIQNVPLDAIMRAYYQIFEELGGFGVMGVIQDFAPVVDDVALPQHPFWNGASPLSRDVPLMIGCTRTEMTEYFLASNPGAAKRDFAAVTAQLEPVFGMQAPAVVAHYRATHPTASPWEVDALIRSDWPTRLFTQRIADEQVKLGGAPVWMYRMDWQTTARDGLLMSPHAIDIPFVLDTVGTEPVEPGQLAEQQRMMQQMNNAWVSFARNGNPQNKYIPPWQPYNSTSRPTMIFNLHSHMANDPDGSDLAFLKKDLANLEVVAGGVTH
notes: recombinant in E. coli BL21 (DE3), N-terminal His6-SUMO tag (pSMT3), Ni-NTA purified; 57 kDa; 510 residues modelled; catalytic triad S189, E314, H414
Km (purified protein [2]): 0.10 ± 0.01 mM

B3: E93 (Altericroceibacterium indicum; W107A) (protein)
chain: MARTRYGPVIGKVEQGALAFKGIPYGAPTSGSGRFMPPTPPQPWSTPLRAFDYGPTAPQSDPQDALESGAADARESEDCLTLNVWTPSLNDQRKRPVMVWLHGGGLARLSAAGDYQAGTHLAAHSDVVMVSPNHRLNVLAHAYLDEYDPAFAGSSSAGMLDLVLALKWVRDNIEEFGGDPDNVTIFGQSGGGQKVSFLMAMPAAAGLFHKAIIQSGPAPLALEKPYARELSARLLTLLDIPKNRVRDIQNVPLDAIMRAYYQIFEELGGFGVMGVIQDFAPVVDDVALPQHPFWNGASPLSRDVPLMIGCTRTEMTEYFLASNPGAAKRDFAAVTAQLEPVFGMQAPAVVAHYRATHPTASPWEVDALIRSDWPTRLFTQRIADEQVKLGGAPVWMYRMDWQTTARDGLLMSPHAIDIPFVLDTVGTEPVEPGQLAEQQRMMQQMNNAWVSFARNGNPQNKYIPPWQPYNSTSRPTMIFNLHSHMANDPDGSDLAFLKKDLANLEVVAGGVTH
notes: as for B2
Km (purified protein [2]): 0.21 ± 0.018 mM

B4: E93 (Altericroceibacterium indicum; T375I) (protein)
chain: MARTRYGPVIGKVEQGALAFKGIPYGAPTSGSGRFMPPTPPQPWSTPLRAFDYGPTAPQSDPQDALESGAADARESEDCLTLNVWTPSLNDQRKRPVMVWLHGGGLWRLSAAGDYQAGTHLAAHSDVVMVSPNHRLNVLAHAYLDEYDPAFAGSSSAGMLDLVLALKWVRDNIEEFGGDPDNVTIFGQSGGGQKVSFLMAMPAAAGLFHKAIIQSGPAPLALEKPYARELSARLLTLLDIPKNRVRDIQNVPLDAIMRAYYQIFEELGGFGVMGVIQDFAPVVDDVALPQHPFWNGASPLSRDVPLMIGCTRTEMTEYFLASNPGAAKRDFAAVTAQLEPVFGMQAPAVVAHYRATHPTASPWEVDALIRSDWPIRLFTQRIADEQVKLGGAPVWMYRMDWQTTARDGLLMSPHAIDIPFVLDTVGTEPVEPGQLAEQQRMMQQMNNAWVSFARNGNPQNKYIPPWQPYNSTSRPTMIFNLHSHMANDPDGSDLAFLKKDLANLEVVAGGVTH
notes: as for B2
Km (purified protein [2]): 0.11 ± 0.01 mM
Km (purified protein [3]): 0.10 ± 0.01 mM

B5: E93 (Altericroceibacterium indicum; M273A) (protein)
chain: MARTRYGPVIGKVEQGALAFKGIPYGAPTSGSGRFMPPTPPQPWSTPLRAFDYGPTAPQSDPQDALESGAADARESEDCLTLNVWTPSLNDQRKRPVMVWLHGGGLWRLSAAGDYQAGTHLAAHSDVVMVSPNHRLNVLAHAYLDEYDPAFAGSSSAGMLDLVLALKWVRDNIEEFGGDPDNVTIFGQSGGGQKVSFLMAMPAAAGLFHKAIIQSGPAPLALEKPYARELSARLLTLLDIPKNRVRDIQNVPLDAIMRAYYQIFEELGGFGVAGVIQDFAPVVDDVALPQHPFWNGASPLSRDVPLMIGCTRTEMTEYFLASNPGAAKRDFAAVTAQLEPVFGMQAPAVVAHYRATHPTASPWEVDALIRSDWPTRLFTQRIADEQVKLGGAPVWMYRMDWQTTARDGLLMSPHAIDIPFVLDTVGTEPVEPGQLAEQQRMMQQMNNAWVSFARNGNPQNKYIPPWQPYNSTSRPTMIFNLHSHMANDPDGSDLAFLKKDLANLEVVAGGVTH
notes: as for B2
Km (purified protein [2]): 0.39 ± 0.025 mM

B6: E93 (Altericroceibacterium indicum) (protein)
chain: MARTRYGPVIGKVEQGALAFKGIPYGAPTSGSGRFMPPTPPQPWSTPLRAFDYGPTAPQSDPQDALESGAADARESEDCLTLNVWTPSLNDQRKRPVMVWLHGGGLWRLSAAGDYQAGTHLAAHSDVVMVSPNHRLNVLAHAYLDEYDPAFAGSSSAGMLDLVLALKWVRDNIEEFGGDPDNVTIFGQSGGGQKVSFLMAMPAAAGLFHKAIIQSGPAPLALEKPYARELSARLLTLLDIPKNRVRDIQNVPLDAIMRAYYQIFEELGGFGVMGVIQDFAPVVDDVALPQHPFWNGASPLSRDVPLMIGCTRTEMTEYFLASNPGAAKRDFAAVTAQLEPVFGMQAPAVVAHYRATHPTASPWEVDALIRSDWPTRLFTQRIADEQVKLGGAPVWMYRMDWQTTARDGLLMSPHAIDIPFVLDTVGTEPVEPGQLAEQQRMMQQMNNAWVSFARNGNPQNKYIPPWQPYNSTSRPTMIFNLHSHMANDPDGSDLAFLKKDLANLEVVAGGVTH
notes: as for B2
Km (HPLC of SN38 formation [4]): 75.66 ± 6.03 µM
kcat (HPLC of SN38 formation [4]): 35.40 ± 1.70 ×10^-3 min^-1
Km (HPLC of SN38 formation [5]): 70.17 ± 7.07 µM
Km (purified protein [2]): 0.18 ± 0.011 mM
Km (purified protein [3]; 0.02-3.50 mM substrate): 0.21 ± 0.02 mM

B7: E93 (Altericroceibacterium indicum; Y318A) (protein)
chain: MARTRYGPVIGKVEQGALAFKGIPYGAPTSGSGRFMPPTPPQPWSTPLRAFDYGPTAPQSDPQDALESGAADARESEDCLTLNVWTPSLNDQRKRPVMVWLHGGGLWRLSAAGDYQAGTHLAAHSDVVMVSPNHRLNVLAHAYLDEYDPAFAGSSSAGMLDLVLALKWVRDNIEEFGGDPDNVTIFGQSGGGQKVSFLMAMPAAAGLFHKAIIQSGPAPLALEKPYARELSARLLTLLDIPKNRVRDIQNVPLDAIMRAYYQIFEELGGFGVMGVIQDFAPVVDDVALPQHPFWNGASPLSRDVPLMIGCTRTEMTEAFLASNPGAAKRDFAAVTAQLEPVFGMQAPAVVAHYRATHPTASPWEVDALIRSDWPTRLFTQRIADEQVKLGGAPVWMYRMDWQTTARDGLLMSPHAIDIPFVLDTVGTEPVEPGQLAEQQRMMQQMNNAWVSFARNGNPQNKYIPPWQPYNSTSRPTMIFNLHSHMANDPDGSDLAFLKKDLANLEVVAGGVTH
Km (purified protein [1]): 55.47 ± 5.17 µM
kcat (purified protein [1]): 40.87 ± 3.07 ×10^-3 min^-1

B8: E93 (Altericroceibacterium indicum; T375A) (protein)
chain: MARTRYGPVIGKVEQGALAFKGIPYGAPTSGSGRFMPPTPPQPWSTPLRAFDYGPTAPQSDPQDALESGAADARESEDCLTLNVWTPSLNDQRKRPVMVWLHGGGLWRLSAAGDYQAGTHLAAHSDVVMVSPNHRLNVLAHAYLDEYDPAFAGSSSAGMLDLVLALKWVRDNIEEFGGDPDNVTIFGQSGGGQKVSFLMAMPAAAGLFHKAIIQSGPAPLALEKPYARELSARLLTLLDIPKNRVRDIQNVPLDAIMRAYYQIFEELGGFGVMGVIQDFAPVVDDVALPQHPFWNGASPLSRDVPLMIGCTRTEMTEYFLASNPGAAKRDFAAVTAQLEPVFGMQAPAVVAHYRATHPTASPWEVDALIRSDWPARLFTQRIADEQVKLGGAPVWMYRMDWQTTARDGLLMSPHAIDIPFVLDTVGTEPVEPGQLAEQQRMMQQMNNAWVSFARNGNPQNKYIPPWQPYNSTSRPTMIFNLHSHMANDPDGSDLAFLKKDLANLEVVAGGVTH
notes: as for B2
Km (purified protein [2]): 0.13 ± 0.01 mM

Reference: PMC9901791, “Structural insights into catalytical capability for CPT11 hydrolysis and substrate specificity of a novel marine microbial carboxylesterase, E93” (Frontiers in Microbiology, 2023)
